# Test results published in article PMC9482650, “Quantitative fragmentomics allow affinity mapping of interactomes” (Nature Communications, 2022).
# Key:
# Assay in all cases: holdup assay
# Parameters in all cases: key: below the threshold = too weak to quantify, mostly under pKd 3.1 to 4
# Settings in all cases: plain residues with an end cap or a label only (N-terminal biotin on a linker: ado-ado)
# APBA3_1, O96018 = biological target: T1, APBA3_1, O96018
# T1 sequence (O96018 389-490, limits assumed, looked up): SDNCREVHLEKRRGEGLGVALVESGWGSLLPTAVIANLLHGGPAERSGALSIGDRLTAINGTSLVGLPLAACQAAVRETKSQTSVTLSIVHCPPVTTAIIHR
# DFNB31_1, Q9P202 = biological target: T2, DFNB31_1, Q9P202
# T2 sequence (Q9P202 135-233, limits assumed, looked up): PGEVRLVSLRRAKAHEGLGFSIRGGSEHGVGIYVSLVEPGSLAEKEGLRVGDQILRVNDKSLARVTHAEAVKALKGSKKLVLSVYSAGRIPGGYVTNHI
# DLG2_2, Q15700 = biological target: DLG2_2, Q15700
# DLG2_2, Q15700, sequence (Q15700 189-283): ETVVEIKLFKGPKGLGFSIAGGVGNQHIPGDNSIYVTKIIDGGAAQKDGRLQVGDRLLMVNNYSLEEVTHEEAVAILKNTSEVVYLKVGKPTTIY
# DLG3_3, Q92796 = biological target: T3, DLG3_3, Q92796
# T3 sequence (Q92796 374-475, limits assumed, looked up): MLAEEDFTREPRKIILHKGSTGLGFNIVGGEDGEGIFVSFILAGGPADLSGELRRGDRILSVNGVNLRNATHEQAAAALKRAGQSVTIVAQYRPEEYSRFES
# DVL3, Q92997 = biological target: T4, DVL3, Q92997
# T4 sequence (Q92997 244-331, limits assumed, looked up): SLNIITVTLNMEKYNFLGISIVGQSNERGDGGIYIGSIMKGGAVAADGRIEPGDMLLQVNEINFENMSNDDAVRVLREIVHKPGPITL
# FRMPD2_1, Q68DX3 = biological target: FRMPD2_1, Q68DX3
# FRMPD2_1, Q68DX3, sequence (Q68DX3 770-861): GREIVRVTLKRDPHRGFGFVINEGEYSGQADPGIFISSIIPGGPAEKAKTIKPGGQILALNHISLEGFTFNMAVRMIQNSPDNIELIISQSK
# GORASP1, Q9BQQ3 = biological target: GORASP1, Q9BQQ3
# GORASP1, Q9BQQ3, sequence (Q9BQQ3 1-208): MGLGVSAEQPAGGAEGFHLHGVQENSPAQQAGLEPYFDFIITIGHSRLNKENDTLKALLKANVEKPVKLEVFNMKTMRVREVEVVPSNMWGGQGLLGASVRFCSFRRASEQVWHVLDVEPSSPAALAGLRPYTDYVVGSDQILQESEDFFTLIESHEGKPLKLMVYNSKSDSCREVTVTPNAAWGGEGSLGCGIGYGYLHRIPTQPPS
# GORASP2, Q9H8Y8 = biological target: GORASP2, Q9H8Y8
# GRIP2_6, Q9C0E4 = biological target: GRIP2_6, Q9C0E4
# GRIP2_6, Q9C0E4, sequence (Q9C0E4 648-740): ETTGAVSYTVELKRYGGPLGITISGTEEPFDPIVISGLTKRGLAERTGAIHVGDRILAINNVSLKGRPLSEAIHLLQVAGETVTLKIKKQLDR
# IL16_1, Q14005 = biological target: IL16_1, Q14005
# IL16_1, Q14005, sequence (Q14005 210-306): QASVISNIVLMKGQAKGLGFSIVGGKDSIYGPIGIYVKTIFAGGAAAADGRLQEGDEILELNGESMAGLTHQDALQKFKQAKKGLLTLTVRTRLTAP
# Inadl_1, Q8NI35 = biological target: Inadl_1, Q8NI35
# Inadl_1, Q8NI35, sequence (Q8NI35 113-229): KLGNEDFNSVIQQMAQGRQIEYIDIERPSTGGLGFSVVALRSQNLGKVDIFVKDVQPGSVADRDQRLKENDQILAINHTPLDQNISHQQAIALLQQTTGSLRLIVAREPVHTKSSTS
# Inadl_3, Q8NI35 = biological target: Inadl_3, Q8NI35
# Inadl_3, Q8NI35, sequence (Q8NI35 359-469): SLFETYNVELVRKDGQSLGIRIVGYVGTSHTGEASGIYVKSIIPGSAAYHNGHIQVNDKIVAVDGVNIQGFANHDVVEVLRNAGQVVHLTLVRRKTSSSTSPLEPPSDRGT
# Inadl_4, Q8NI35 = biological target: Inadl_4, Q8NI35
# Inadl_4, Q8NI35, sequence (Q8NI35 547-651): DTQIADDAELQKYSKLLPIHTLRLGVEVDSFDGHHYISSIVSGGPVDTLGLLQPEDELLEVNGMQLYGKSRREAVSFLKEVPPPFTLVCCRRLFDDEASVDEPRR
# LRRC7, Q96NW7 = biological target: T5, LRRC7, Q96NW7
# T5 sequence (Q96NW7 1440-1537, limits assumed, looked up): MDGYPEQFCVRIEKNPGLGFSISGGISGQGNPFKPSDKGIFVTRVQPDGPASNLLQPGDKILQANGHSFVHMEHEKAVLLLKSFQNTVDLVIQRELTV
# MPDZ_10, O75970 = biological target: T6, MPDZ_10, O75970
# T6 sequence (O75970 1624-1722, limits assumed, looked up): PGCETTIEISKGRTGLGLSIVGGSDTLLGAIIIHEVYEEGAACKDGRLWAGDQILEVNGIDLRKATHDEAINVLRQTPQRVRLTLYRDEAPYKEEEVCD
# MPDZ_5, O75970 = biological target: T7, MPDZ_5, O75970
# T7 sequence (O75970 695-796, limits assumed, looked up): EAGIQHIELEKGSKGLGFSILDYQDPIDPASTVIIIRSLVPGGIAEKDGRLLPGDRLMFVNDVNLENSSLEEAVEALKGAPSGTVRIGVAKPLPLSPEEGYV
# MPP7, Q5T2T1 = biological target: T8, MPP7, Q5T2T1
# T8 sequence (Q5T2T1 134-230, limits assumed, looked up): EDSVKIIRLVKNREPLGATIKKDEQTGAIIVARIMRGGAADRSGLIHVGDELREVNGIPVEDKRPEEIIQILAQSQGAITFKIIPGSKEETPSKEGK
# NHERF4_1, Q86UT5-2 = biological target: NHERF4_1, Q86UT5-2
# NHERF4_1, Q86UT5-2, sequence (Q86UT5 other isoform, or with tags, fused parts or gaps): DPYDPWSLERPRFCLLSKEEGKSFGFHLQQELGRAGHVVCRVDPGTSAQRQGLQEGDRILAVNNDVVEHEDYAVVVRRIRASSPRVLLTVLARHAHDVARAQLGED
# NHERF4_4, Q86UT5 = biological target: NHERF4_4, Q86UT5
# NHERF4_4, Q86UT5, sequence (Q86UT5 464-550): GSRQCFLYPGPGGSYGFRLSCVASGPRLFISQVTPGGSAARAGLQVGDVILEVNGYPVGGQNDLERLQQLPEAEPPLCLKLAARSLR
# PDLIM1, O00151 = biological target: PDLIM1, O00151
# PDLIM1, O00151, sequence (O00151 1-87): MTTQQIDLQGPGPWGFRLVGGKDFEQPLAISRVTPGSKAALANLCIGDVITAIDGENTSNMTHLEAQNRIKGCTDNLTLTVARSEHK
# PDZRN3_1, Q9UPQ7 = biological target: T9, PDZRN3_1, Q9UPQ7
# T9 sequence (Q9UPQ7 244-349, limits assumed, looked up): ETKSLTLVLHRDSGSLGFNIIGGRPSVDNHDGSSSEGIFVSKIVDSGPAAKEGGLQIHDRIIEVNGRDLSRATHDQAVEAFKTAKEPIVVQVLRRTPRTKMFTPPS
# RHPN1, Q8TCX5 = biological target: T10, RHPN1, Q8TCX5
# T10 sequence (Q8TCX5 508-602, limits assumed, looked up): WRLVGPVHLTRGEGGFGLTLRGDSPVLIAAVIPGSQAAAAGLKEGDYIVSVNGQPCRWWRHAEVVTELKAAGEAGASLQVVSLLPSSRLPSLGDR
# SCRIB_1, Q14160 = biological target: SCRIB_1, Q14160
# SCRIB_1, Q14160, sequence (Q14160 718-814): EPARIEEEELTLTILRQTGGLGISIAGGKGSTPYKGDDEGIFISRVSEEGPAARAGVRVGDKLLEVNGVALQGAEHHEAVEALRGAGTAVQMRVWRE
# SCRIB_3, Q14160 = biological target: SCRIB_3, Q14160
# SCRIB_3, Q14160, sequence (Q14160 999-1103): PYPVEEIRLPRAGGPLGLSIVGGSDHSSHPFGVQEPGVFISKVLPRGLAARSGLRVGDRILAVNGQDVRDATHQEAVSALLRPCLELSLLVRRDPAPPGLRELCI
# SNTB1, Q13884 = biological target: T11, SNTB1, Q13884
# T11 sequence (Q13884 107-205, limits assumed, looked up): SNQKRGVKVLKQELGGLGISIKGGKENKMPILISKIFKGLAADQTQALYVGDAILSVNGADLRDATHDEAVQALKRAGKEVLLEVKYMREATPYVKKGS
# TJP1_2, Q07157 = biological target: TJP1_2, Q07157
# TJP1_2, Q07157, sequence (Q07157 181-274): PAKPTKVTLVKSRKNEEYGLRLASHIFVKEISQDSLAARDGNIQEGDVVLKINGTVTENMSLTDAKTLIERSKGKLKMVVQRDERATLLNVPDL
Binder,"pKd (APBA3_1, O96018)","pKd (DFNB31_1, Q9P202)","pKd (DLG2_2, Q15700)","pKd (DLG3_3, Q92796)","pKd (DVL3, Q92997)","pKd (FRMPD2_1, Q68DX3)","pKd (GORASP1, Q9BQQ3)","pKd (GORASP2, Q9H8Y8)","pKd (GRIP2_6, Q9C0E4)","pKd (IL16_1, Q14005)","pKd (Inadl_1, Q8NI35)","pKd (Inadl_3, Q8NI35)","pKd (Inadl_4, Q8NI35)","pKd (LRRC7, Q96NW7)","pKd (MPDZ_10, O75970)","pKd (MPDZ_5, O75970)","pKd (MPP7, Q5T2T1)","pKd (NHERF4_1, Q86UT5-2)","pKd (NHERF4_4, Q86UT5)","pKd (PDLIM1, O00151)",also measured
"QHKTQLQTLI [BPIFA2, Q96DR5]",below the threshold,4.38,4.32,below the threshold,below the threshold,below the threshold,3.73,3.77,below the threshold,below the threshold,below the threshold,3.93,below the threshold,below the threshold,below the threshold,below the threshold,below the threshold,3.85,below the threshold,below the threshold,"pKd (PDZRN3_1, Q9UPQ7): 3.65; pKd (RHPN1, Q8TCX5): 4.26; pKd (SCRIB_1, Q14160): 4.02; pKd (SCRIB_3, Q14160): 4.2; pKd (SNTB1, Q13884): 3.49; pKd (TJP1_2, Q07157): below the threshold"
"VNKSKLLTDV [KCNA1, Q09470]",below the threshold,below the threshold,4.29,below the threshold,below the threshold,below the threshold,below the threshold,3.91,below the threshold,below the threshold,below the threshold,below the threshold,below the threshold,below the threshold,below the threshold,below the threshold,below the threshold,below the threshold,below the threshold,below the threshold,"pKd (PDZRN3_1, Q9UPQ7): below the threshold; pKd (RHPN1, Q8TCX5): 3.96; pKd (SCRIB_1, Q14160): 3.87; pKd (SCRIB_3, Q14160): 3.55; pKd (SNTB1, Q13884): below the threshold; pKd (TJP1_2, Q07157): below the threshold"
"LSEFKAMDSI [CTNNA1, P35221]",below the threshold,below the threshold,below the threshold,below the threshold,below the threshold,below the threshold,below the threshold,below the threshold,below the threshold,below the threshold,below the threshold,below the threshold,below the threshold,below the threshold,below the threshold,below the threshold,below the threshold,below the threshold,below the threshold,below the threshold,"pKd (PDZRN3_1, Q9UPQ7): below the threshold; pKd (RHPN1, Q8TCX5): below the threshold; pKd (SCRIB_1, Q14160): below the threshold; pKd (SCRIB_3, Q14160): below the threshold; pKd (SNTB1, Q13884): below the threshold; pKd (TJP1_2, Q07157): below the threshold"
"TPPAAKKSRI [BAZ1A, Q9NRL2]",below the threshold,3.68,3.65,below the threshold,below the threshold,below the threshold,below the threshold,below the threshold,below the threshold,below the threshold,below the threshold,below the threshold,below the threshold,below the threshold,3.69,below the threshold,below the threshold,below the threshold,below the threshold,below the threshold,"pKd (PDZRN3_1, Q9UPQ7): below the threshold; pKd (RHPN1, Q8TCX5): 3.61; pKd (SCRIB_1, Q14160): below the threshold; pKd (SCRIB_3, Q14160): below the threshold; pKd (SNTB1, Q13884): below the threshold; pKd (TJP1_2, Q07157): below the threshold"
"VDSTVKVWTC [TRAF7, Q6Q0C0]",below the threshold,3.58,3.72,below the threshold,3.85,4.45,4.15,4.88,4.94,below the threshold,3.67,4.4,below the threshold,below the threshold,below the threshold,below the threshold,3.84,3.67,3.62,below the threshold,"pKd (PDZRN3_1, Q9UPQ7): below the threshold; pKd (RHPN1, Q8TCX5): below the threshold; pKd (SCRIB_1, Q14160): 3.66; pKd (SCRIB_3, Q14160): below the threshold; pKd (SNTB1, Q13884): below the threshold; pKd (TJP1_2, Q07157): below the threshold"
